Assay results from the supplement of paper PMC5998384.

How the values were obtained:
[1] = test system: HeLa Kyoto; assay: solubility in G1/S (NP-40 vs SDS abundance) (log2 ratio); higher = more soluble; conditions: cell cycle stage: G1/S
[2] = test system: HeLa Kyoto; assay: solubility change mitosis vs G1/S (difference of NP-40 vs SDS log2 ratios) (log2 ratio difference); higher = more soluble in mitosis
[3] = test system: HeLa Kyoto; assay: thermal stability score vs G1/S (z-score of summed log2 fold changes over temperatures); higher = more thermally stable than in G1/S
[4] = cell cycle stage: early G1 (4.5 h after nocodazole release)
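For solubility change mitosis vs G1/S (difference of NP-40 vs SDS log2 ratios) in this document: synchronized HeLa Kyoto cells (double thymidine block for G1/S, nocodazole release for mitosis), protein amounts in NP-40 versus SDS lysates quantified by mass spectrometry, three biological replicates.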
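For solubility in G1/S (NP-40 vs SDS abundance) in this document: HeLa Kyoto cells arrested at G1/S by double thymidine block, proteins quantified by TMT10plex mass spectrometry in mild NP-40 versus SDS extracts, three biological replicates.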
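For thermal stability score vs G1/S (z-score of summed log2 fold changes over temperatures) in this document: synchronized HeLa Kyoto cells, proteins quantified by TMT10plex mass spectrometry, three biological replicates, mitosis taken 0.5 h after nocodazole release, G1/S directly after double thymidine block.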

With “MASDASHALEAALEQMDGIIAGTKTGADLSDGTCEPGLASPASYMNPFPVLHLIEDLRLALEMLELPQERAALLSQIPGPTAAYIKEWFEESLSQVNHHSAASNETYQERLARLEGDKESLILQVSVLTDQVEAQGEKIRDLEVCLEGHQVKLNAAEEMLQQELLSRTSLETQKLDLMTEVSELKLKLVGMEKEQREQEEKQRKAEELLQELRHLKIKVEELENERNQYEWKLKATKAEVAQLQEQVALKDAEIERLHSQLSRTAALHSESHTERDQEIQRLKMGMETLLLANEDKDRRIEELTGLLNQYRKVKEIVMVTQGPSERTLSINEEEPEGGFSKWNATNKDPEELFKQEMPPRCSSPTVGPPPLPQKSLETRAQKKLSCSLEDLRSESVDKCMDGNQPFPVLEPKDSPFLAEHKYPTLPGKLSGATPNGEAAKSPPTICQPDATGSSLLRLRDTESGWDDTAVVNDLSSTSSGTESGPQSPLTPDGKRNPKGIKKFWGKIRRTQSGNFYTDTLGMAEFRRGGLRATAGPRLSRTRDSKGQKSDANAPFAQWSTERVCAWLEDFGLAQYVIFARQWVSSGHTLLTATPQDMEKELGIKHPLHRKKLVLAVKAINTKQEEKSALLDHIWVTRWLDDIGLPQYKDQFHESRVDRRMLQYLTVNDLLFLKVTSQLHHLSIKCAIHVLHVNKFNPHCLHRRPADESNLSPSEVVQWSNHRVMEWLRSVDLAEYAPNLRGSGVHGGLIILEPRFTGDTLAMLLNIPPQKTLLRRHLTTKFNALIGPEAEQEKREKMASPAYTPLTTTAKVRPRKLGFSHFGNIRKKKFDESTDYICPMEPSDGVSDSHRVYSGYRGLSPLDAPELDGLDQVGQIS [PPFIBP2]” the “solubility in G1/S (log2)” value [1] was 0.218, the “solubility change mitosis (log2)” value [2] was -0.265 and the thermal stability score [3, 4] was 0.328. It also gave a thermal stability score ([3]; cell cycle stage: mitosis) of 0.498.
In the case of “MAVEDEGLRVFQSVKIKIGEAKNLPSYPGPSKMRDCYCTVNLDQEEVFRTKIVEKSLCPFYGEDFYCEIPRSFRHLSFYIFDRDVFRRDSIIGKVAIQKEDLQKYHNRDTWFQLQHVDADSEVQGKVHLELRLSEVITDTGVVCHKLATRIVECQGLPIVNGQCDPYATVTLAGPFRSEAKKTKVKRKTNNPQFDEVFYFEVTRPCSYSKKSHFDFEEEDVDKLEIRVDLWNASNLKFGDEFLGELRIPLKVLRQSSSYEAWYFLQPRDNGSKSLKPDDLGSLRLNVVYTEDHVFSSDYYSPLRDLLLKSADVEPVSASAAHILGEVCREKQEAAVPLVRLFLHYGRVVPFISAIASAEVKRTQDPNTIFRGNSLASKCIDETMKLAGMHYLHVTLKPAIEEICQSHKPCEIDPVKLKDGENLENNMENLRQYVDRVFHAITESGVSCPTVMCDIFFSLREAAAKRFQDDPDVRYTAVSSFIFLRFFAPAILSPNLFQLTPHHTDPQTSRTLTLISKTVQTLGSLSKSKSASFKESYMATFYEFFNEQKYADAVKNFLDLISSSGRRDPKSVEQPIVLKEGFMIKRAQGRKRFGMKNFKKRWFRLTNHEFTYHKSKGDQPLYSIPIENILAVEKLEEESFKMKNMFQVIQPERALYIQANNCVEAKDWIDILTKVSQCNQKRLTVYHPSAYLSGHWLCCRAPSDSAPGCSPCTGGLPANIQLDIDGDRETERIYSLFNLYMSKLEKMQEACGSKSVYDGPEQEEYSTFVIDDPQETYKTLKQVIAGVGALEQEHAQYKRDKFKKTKYGSQEHPIGDKSFQNYIRQQSETSTHSI [RASA3]”, the “solubility in G1/S (log2)” value [1] is reported as -0.118, the “solubility change mitosis (log2)” value [2] is reported as -0.19 and the thermal stability score [3, 4] is reported as 0.315. The thermal stability score ([3]; cell cycle stage: mitosis) was 0.353.
“MNKGWLELESDPGLFTLLVEDFGVKGVQVEEIYDLQSKCQGPVYGFIFLFKWIEERRSRRKVSTLVDDTSVIDDDIVNNMFFAHQLIPNSCATHALLSVLLNCSSVDLGPTLSRMKDFTKGFSPESKGYAIGNAPELAKAHNSHARPEPRHLPEKQNGLSAVRTMEAFHFVSYVPITGRLFELDGLKVYPIDHGPWGEDEEWTDKARRVIMERIGLATAGEPYHDIRFNLMAVVPDRRIKYEARLHVLKVNRQTVLEALQQLIRVTQPELIQTHKSQESQLPEESKSASNKSPLVLEANRAPAASEGNHTDGAEEAAGSCAQAPSHSPPNKPKLVVKPPGSSLNGVHPNPTPIVQRLPAFLDNHNYAKSPMQEEEDLAAGVGRSRVPVRPPQQYSDDEDDYEDDEEDDVQNTNSALRYKGKGTGKPGALSGSADGQLSVLQPNTINVLAEKLKESQKDLSIPLSIKTSSGAGSPAVAVPTHSQPSPTPSNESTDTASEIGSAFNSPLRSPIRSANPTRPSSPVTSHISKVLFGEDDSLLRVDCIRYNRAVRDLGPVISTGLLHLAEDGVLSPLALTEGGKGSSPSIRPIQGSQGSSSPVEKEVVEATDSREKTGMVRPGEPLSGEKYSPKELLALLKCVEAEIANYEACLKEEVEKRKKFKIDDQRRTHNYDEFICTFISMLAQEGMLANLVEQNISVRRRQGVSIGRLHKQRKPDRRKRSRPYKAKRQ [BAP1]” was tested, and the “solubility in G1/S (log2)” value [1] was 0.152, the “solubility change mitosis (log2)” value [2] was -0.138 and the thermal stability score [3, 4] was 0.51. It also gave a thermal stability score ([3]; cell cycle stage: mitosis) of 0.853.
With ESPL1 the “solubility in G1/S (log2)” value [1] was -0.00542, the “solubility change mitosis (log2)” value [2] was -0.204 and the thermal stability score [3, 4] was 0.555. It also gave a thermal stability score ([3]; cell cycle stage: mitosis) of 2.16.
In the case of “MFHCIPLWRCNRHVESIDKRHCSLVYVPEEIYRYARSLEELLLDANQLRELPEQFFQLVKLRKLGLSDNEIQRLPPEIANFMQLVELDVSRNEIPEIPESISFCKALQVADFSGNPLTRLPESFPELQNLTCLSVNDISLQSLPENIGNLYNLASLELRENLLTYLPDSLTQLRRLEELDLGNNEIYNLPESIGALLHLKDLWLDGNQLSELPQEIGNLKNLLCLDVSENRLERLPEEISGLTSLTDLVISQNLLETIPDGIGKLKKLSILKVDQNRLTQLPEAVGECESLTELVLTENQLLTLPKSIGKLKKLSNLNADRNKLVSLPKEIGGCCSLTVFCVRDNRLTRIPAEVSQATELHVLDVAGNRLLHLPLSLTALKLKALWLSDNQSQPLLTFQTDTDYTTGEKILTCVLLPQLPSEPTCQENLPRCGALENLVNDVSDEAWNERAVNRVSAIRFVEDEKDEEDNETRTLLRRATPHPGELKHMKKTVENLRNDMNAAKGLDSNKNEVNHAIDRVTTSV [LRRC1]”, the “solubility in G1/S (log2)” value [1] is reported as -0.0636, the “solubility change mitosis (log2)” value [2] is reported as -0.136 and the thermal stability score [3, 4] is reported as -0.136. The thermal stability score ([3]; cell cycle stage: mitosis) was -0.881.
In the case of “MAASGVEKSSKKKTEKKLAAREEAKLLAGFMGVMNNMRKQKTLCDVILMVQERKIPAHRVVLAAASHFFNLMFTTNMLESKSFEVELKDAEPDIIEQLVEFAYTARISVNSNNVQSLLDAANQYQIEPVKKMCVDFLKEQVDASNCLGISVLAECLDCPELKATADDFIHQHFTEVYKTDEFLQLDVKRVTHLLNQDTLTVRAEDQVYDAAVRWLKYDEPNRQPFMVDILAKVRFPLISKNFLSKTVQAEPLIQDNPECLKMVISGMRYHLLSPEDREELVDGTRPRRKKHDYRIALFGGSQPQSCRYFNPKDYSWTDIRCPFEKRRDAACVFWDNVVYILGGSQLFPIKRMDCYNVVKDSWYSKLGPPTPRDSLAACAAEGKIYTSGGSEVGNSALYLFECYDTRTESWHTKPSMLTQRCSHGMVEANGLIYVCGGSLGNNVSGRVLNSCEVYDPATETWTELCPMIEARKNHGLVFVKDKIFAVGGQNGLGGLDNVEYYDIKLNEWKMVSPMPWKGVTVKCAAVGSIVYVLAGFQGVGRLGHILEYNTETDKWVANSKVRAFPVTSCLICVVDTCGANEETLET [KLHL7]”, the “solubility in G1/S (log2)” value [1] is reported as -0.622, the “solubility change mitosis (log2)” value [2] is reported as 0.322 and the thermal stability score [3, 4] is reported as 0.201. The thermal stability score ([3]; cell cycle stage: mitosis) was -0.116.
In the case of “MAGAAEDARALFRAGVCAALEAWPALQIAVENGFGGVHSQEKAKWLGGAVEDYFMRNADLELDEVEDFLGELLTNEFDTVVEDGSLPQVSQQLQTMFHHFQRGDGAALREMASCITQRKCKVTATALKTARETDEDEDDVDSVEEMEVTATNDGAATDGVCPQPEPSDPDAQTIKEEDIVEDGWTIVRRKK [TSR2]”, the “solubility in G1/S (log2)” value [1] is reported as 0.00907, the “solubility change mitosis (log2)” value [2] is reported as 0.0427 and the thermal stability score [3, 4] is reported as -0.881. For the same substance, the thermal stability score ([3]; cell cycle stage: mitosis) was 0.659.
In the case of “MAMQMQLEANADTSVEEESFGPQPISRLEQCGINANDVKKLEEAGFHTVEAVAYAPKKELINIKGISEAKADKILAEAAKLVPMGFTTATEFHQRRSEIIQITTGSKELDKLLQGGIETGSITEMFGEFRTGKTQICHTLAVTCQLPIDRGGGEGKAMYIDTEGTFRPERLLAVAERYGLSGSDVLDNVAYARAFNTDHQTQLLYQASAMMVESRYALLIVDSATALYRTDYSGRGELSARQMHLARFLRMLLRLADEFGVAVVITNQVVAQVDGAAMFAADPKKPIGGNIIAHASTTRLYLRKGRGETRICKIYDSPCLPEAEAMFAINADGVGDAKD [RAD51]”, the “solubility in G1/S (log2)” value [1] is reported as -0.073, the “solubility change mitosis (log2)” value [2] is reported as -0.238 and the thermal stability score [3, 4] is reported as -1.12. The thermal stability score ([3]; cell cycle stage: mitosis) was -1.89.
